The source of these data is patent publication US20210206856A1 (PANDION OPERATIONS, published 2021).

Test [1] addresses T1, mouse MAdCAM expressed on cells (mouse, UniProt Q61826 22-405).
T1 construct: whole, on cells
T1 sequence (looked up): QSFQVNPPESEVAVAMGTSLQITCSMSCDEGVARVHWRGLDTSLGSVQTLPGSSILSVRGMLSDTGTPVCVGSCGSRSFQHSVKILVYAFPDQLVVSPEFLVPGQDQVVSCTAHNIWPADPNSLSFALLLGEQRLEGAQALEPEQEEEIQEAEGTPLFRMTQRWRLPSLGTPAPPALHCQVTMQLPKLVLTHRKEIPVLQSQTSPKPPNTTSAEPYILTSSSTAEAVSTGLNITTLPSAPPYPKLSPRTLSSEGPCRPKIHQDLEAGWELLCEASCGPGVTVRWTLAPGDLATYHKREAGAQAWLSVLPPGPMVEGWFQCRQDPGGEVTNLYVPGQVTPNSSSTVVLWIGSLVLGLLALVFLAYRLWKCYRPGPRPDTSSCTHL
Put plainly: cell binding.

Test [2] deals with T2, human MAdCAM expressed on cells (human, UniProt Q13477 19-382).
T2 construct: whole, on cells; also called MADCAM1
T2 sequence (looked up): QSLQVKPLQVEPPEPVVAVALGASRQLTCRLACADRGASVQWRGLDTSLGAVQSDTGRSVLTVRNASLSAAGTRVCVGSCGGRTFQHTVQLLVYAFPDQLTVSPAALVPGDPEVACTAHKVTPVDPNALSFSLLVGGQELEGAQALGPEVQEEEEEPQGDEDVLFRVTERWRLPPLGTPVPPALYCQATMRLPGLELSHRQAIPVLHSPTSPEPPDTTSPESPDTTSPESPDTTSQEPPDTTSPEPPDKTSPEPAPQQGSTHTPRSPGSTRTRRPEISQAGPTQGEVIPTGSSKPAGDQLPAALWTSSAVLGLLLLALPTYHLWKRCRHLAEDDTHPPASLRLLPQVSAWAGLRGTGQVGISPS
In words: cell binding.

B1: MAdCAM Antibody Table 1 Clone 45 (scFv)
scFv: EVQLLESGGGLVQPGGSLRLSCAASGFSVSSNYMSWVRQAPGKGLEWVAGISYDGSSKPYADSVKGRFTISRDNSKNTLYLQMNSLRAEDTAVYYCARSRGIAARPLQHWGQGTLVTVSSGGGGSGGGGSGGGGSGGGGSDIVMTQSPDSLAVSLGERATINCKSSQSVLYSSNNKNYLAWYQQKPGQPPKLLIYWASTRQSGVPDRFSGSGSGTDFTLTISSLQAEDVAVYYCHQYYGHPPTFGGGTKVEIK
Take B1: the binding result is “no binding” in test [1] and “binds” in test [2].

B2: MAdCAM Antibody Table 1 Clone 46 (scFv)
scFv: EVQLLESGGGLVQPGGSLRLSCAASGFSVSSNYMSWVRQAPGKGLEWVAGISYDGSSKPYADSVKGRFTISRDNSKNTLYLQMNSLRAEDTAVYYCARSRGIAARPLQHWGQGTLVTVSSGGGGSGGGGSGGGGSGGGGSDIVMTQSPDSLAVSLGERATINCKSSQSVLYSSNNKNYLAWYQQKPGQPPKLLIYQASTRQSGVPDRFSGSGSGTDFTLTISSLQAEDVAVYYCHQYYGHPPTFGGGTKVEIK
Turning to B2, the results for the binding result in test [1] and in test [2] were “no binding” and “binds”, respectively.

B3: MAdCAM Antibody Table 1 Clone 50 (scFv)
scFv: QVQLVQSGAEVKKPGASVKVSCKASGYTFTSYDINWVRQAPGQGLEWMGWINPNSGTTGYAQKFQGRVTMTRDTSTSTVYMELSSLRSEDTAVYYCARSPYYYYGMDVWGQGTTVTVSSGGGGSGGGGSGGGGSGGGGSDIQMTQSPSSLSASVGDRVTITCRASHFISRWVAWYQQKPGKAPKLLIYAASTLQSGVPSRFSGSGSGTDFTLTISSLQPEDFATYYCQQSYSGISFGPGTKVDIK
On to B3, for which the binding result in test [1] is “no binding”; in test [2], “binds”.

B4: MAdCAM Antibody Table 1 Clone 47 (scFv)
scFv: EVQLLESGGGLVQPGGSLRLSCAASGFSFSDYGMHWVRQAPGKGLEWVSAISGSGGSTYYADSVKGRFTISRDNSKNTLYLQMNSLRAEDTAVYYCARDGGWQPAAILDYWGQGTLVTVSSGGGGSGGGGSGGGGSGGGGSDIQMTQSPSSLSASVGDRVTITCRASQGISNNLNWYQQKPGKAPKLLIYDASNLETGVPSRFSGSGSGTDFTLTISSLQPEDFATYYCQQSYSTPLTFGGGTKVEIK
On to B4, for which the binding result in test [1] was “no binding”; in test [2], “binds”.

B5: MAdCAM Antibody Table 1 Clone 57 (scFv)
scFv: QVQLVQSGAEVKKPGASVKVSCKASGYTFTSYYMHWVRQAPGQGLEWMGIINPSGGSTSYAQKFQGRVTMTRDTSTSTVYMELSSLRSEDTAVYYCARDSVAGTGGRYYGMDVWGQGTLVTVSSGGGGSGGGGSGGGGSGGGGSDIQMTQSPSSLSASVGDRVTITCRASQGISNYFAWYQQKPGKAPKLLIYAASSLQGGVPSRFSGSGSGTDFTLTISSLQPEDFATYYCQQSYSLPYTFGQGTKLEIK
As to B5, the binding result in test [1] is recorded as “no binding”; in test [2], “binds”.

B6: MAdCAM Antibody Table 1 Clone 49 (scFv)
scFv: QVQLVQSGAEVKKPGASVKVSCKASGDTFTGYYIHWVRQAPGQGLEWMGWINPNSGGTNYAQKFQGRVTMTRDTSTSTVYMELSSLRSEDTAVYYCARSGLWLGSYYGMDVWGQGTLVTVSSGGGGSGGGGSGGGGSGGGGSDIQMTQSPSSLSASVGDRVTITCRASQTISIWLAWYQQKPGKAPKLLIYDASTLQSGVPSRFSGSGSGTDFTLTISSLQPEDFATYYCQQYSSYPLTFGQGTKVEIK
For B6, the binding result is reported as “no binding” in test [1] and “binds” in test [2].

B7: MAdCAM Antibody Table 1 Clone 52 (scFv)
scFv: EVQLLESGGGLVQPGGSLRLSCAASGFTFSNSDMNWVRQAPGKGLEWVAHIWNDGSQKYYADSVKGRFTISRDNSKNTLYLQMNSLRAEDTAVYYCARDRTDPGYSSAMDVWGQGTTVTVSSGGGGSGGGGSGGGGSGGGGSDIQMTQSPSSLSASVGDRVTITCRASQDIRNYLGWYQQKPGKAPKLLIYDASSLETGVPSRFSGSGSGTDFTLTISSLQPEDFATYYCQQATSLPLTFGGGTKVEIK
For B7, the binding result in test [1] is given as “no binding”; in test [2] it was “binds”.

B8: MAdCAM Antibody Table 1 Clone 55 (scFv)
scFv: QVQLVQSGAEVKKPGASVKVSCKASGYTFTSYYMHWVRQAPGQGLEWMGIIDPSGGSTSYAQKFQGRVTMTRDTSTSTVYMELSSLRSEDTAVYYCAREEWSSGGVGYFDYWGQGTLVTVSSGGGGSGGGGSGGGGSGGGGSDIQMTQSPSSLSASVGDRVTITCRASQGISSYLAWYQQKPGKAPKLLIYATSSLQTGVPSRFSGSGSGTDFTLTISSLQPEDFATYYCQQTYSIPITFGQGTRLEIK
With B8, the binding result in test [1] was “no binding”; in test [2], “binds”.

B9: MAdCAM Antibody Table 1 Clone 51 (scFv)
scFv: EVQLLESGGGLVQPGGSLRLSCAASGFTFNNYGMNWVRQAPGKGLEWVSRINSDGSSTSYADSVKGRFTISRDNSKNTLYLQMNSLRAEDTAVYYCARGAYYYYYMDVWGQGTLVTVSSGGGGSGGGGSGGGGSGGGGSEIVMTQSPATLSVSPGERATLSCRASQSVSGSYLAWYQQKPGQAPRLLIYATSSRASGIPARFSGSGSGTEFTLTISSLQSEDFAVYYCQQYYSGLTFGQGTKVEIK
For the molecule B9, the binding result in test [1] is reported as “no binding”; in test [2] it was “binds”.

B10: MAdCAM Antibody Table 1 Clone 58 (scFv)
scFv: QVQLVQSGAEVKKPGASVKVSCKASGYTFTGYYMHWVRQAPGQGLEWMGIINPSGGNTKYAQKFQGRVTMTRDTSTSTVYMELSSLRSEDTAVYYCTTADYYYYMDVWGKGTTVTVSSGGGGSGGGGSGGGGSGGGGSDIQMTQSPSSLSASVGDRVTITCRASQGISNYLAWYQQKPGKAPKLLIYAASSLQSGVPSRFSGSGSGTDFTLTISSLQPEDFATYYCQQYYSNADFGQGTKVEIK
With B10, the values for the binding result in test [1] and in test [2] were “no binding” and “binds”, respectively.

B11: MAdCAM Antibody Table 1 Clone 48 (scFv)
scFv: EVQLLESGGGLVQPGGSLRLSCAASGFTFSDHGMHWVRQAPGKGLEWVSVIYGGESTYYADSVKGRFTISRDNSKNTLYLQMNSLRAEDTAVYYCARDPAVAGGGIFDYWGQGTLVTVSSGGGGSGGGGSGGGGSGGGGSDIQMTQSPSSLSASVGDRVTITCRASQGISNYLAWYQQKPGKAPKLLIYDASNLETGVPSRFSGSGSGTDFTLTISSLQPEDFATYYCQQSYSTCYTFGQGTKLEIK
In the case of B11, the values for the binding result in test [1] and in test [2] were “no binding” and “binds”, respectively.

B12: MAdCAM Antibody Table 1 Clone 60 (scFv)
scFv: EVQLLESGGGLVQPGGSLRLSCAASGFTFDDYTMHWVRQAPGKGLEWVSDISGSGGSTYYADSVKGRFTISRDNSKNTLYLQMNSLRAEDTAVYYCAKDVVVAGTPLHFDYWGQGTLVTVSSGGGGSGGGGSGGGGSGGGGSDIQMTQSPSSLSASVGDRVTITCQASQDISNYLNWYQQKPGKAPKLLIYAASYLQSGVPSRFSGSGSGTDFTLTISSLQPEDFATYYCQQAHNYPITFGQGTRLEIK
Turning to B12, the binding result in test [1] and in test [2] was “binds” each time.

B13: MAdCAM Antibody Table 1 Clone 54 (scFv)
scFv: EVQLLESGGGLVQPGGSLRLSCAASGFTFGDYAMSWVRQAPGKGLEWVAVVSYDGTNKYYADSVKGRFTISRDNSKNTLYLQMNSLRAEDTAVYYCAKDICSSTSCYFDLWGRGTLVTVSSGGGGSGGGGSGGGGSGGGGSDIQMTQSPSSLSASVGDRVTITCRASQNINNYVNWYQQKPGKAPKLLIYDASNLETGVPSRFSGSGSGTDFTLTISSLQPEDFATYYCQQANSFPPTFGQGTRLEIK
For B13, the results for the binding result in test [1] and in test [2] were “no binding” and “binds”, respectively.

B14: MAdCAM Antibody Table 1 Clone 59 (scFv)
scFv: EVQLLESGGGLVQPGGSLRLSCAASGFTFSDFWMHWVRQAPGKGLEWISYISGDSGYTNYADSVKGRFTISRDNSKNTLYLQMNSLRAEDTAVYYCARDRPYYYYMDVWGKGTTVTVSSGGGGSGGGGSGGGGSGGGGSDIQMTQSPSSLSASVGDRVTITCRASQSVSRSLAWYQQKPGKAPKLLIYAASSLQSGVPSRFSGSGSGTDFTLTISSLQPEDFATYYCQQYKSYPVTFGQGTKVEIK
Turning to B14, the binding result in test [1] and in test [2] was “binds” throughout.

B15: MAdCAM Antibody Table 1 Clone 61 (scFv)
scFv: EVQLLESGGGLVQPGGSLRLSCAASEFTFSNAWMSWVRQAPGKGLEWVASISSTSAYIDYADSVKGRFTISRDNSKNTLYLQMNSLRAEDTAVYYCAREVVGATTFDYWGQGTLVTVSSGGGGSGGGGSGGGGSGGGGSDIQMTQSPSSLSASVGDRVTITCRASQSISTWLAWYQQKPGKAPKLLIYAASSLQSGVPSRFSGSGSGTDFTLTISSLQPEDFATYYCQQANAFPPTFGQGTRLEIK
On to B15, for which the binding result in test [1] and in test [2] was “binds” in each case.

B16: MAdCAM Antibody Table 1 Clone 53 (scFv)
scFv: QVQLVQSGAEVKKPGASVKVSCKASGYTFTSYDINWVRQAPGQGLEWMGWMNPNSGNTGYAQKFQGRVTMTRDTSTSTVYMELSSLRSEDTAVYYCAKDSDYSNLLWDYWGQGTLVTVSSGGGGSGGGGSGGGGSGGGGSDIQMTQSPSSLSASVGDRVTITCRASQDITNDLGWYQQKPGKAPKLLIYQASSLESGVPSRFSGSGSGTDFTLTISSLQPEDFATYYCQQSYTIPLTFGQGTKVEIK
Consider B16, for which the binding result in test [1] is given as “no binding”; in test [2] it was “binds”.
